Experimental data from patent publication US5149780A, “Peptides and antibodies that inhibit integrin-ligand binding” (The Scripps Research Institute, priority 1988, dated 1992).

How the values were obtained:
alpha subunit (GPIIb) = target: T1, alpha subunit (GPIIb) (Homo sapiens, UniProt P05106+P08514); assay: Chemical crosslinking of 125I-Fn-7 to platelets with BS3, SDS-PAGE and autoradiography; format: binding; conditions: thrombin-stimulated platelets, 20 μM peptide, 45 min at 22° C., BS3 0.2 mM
T1 construct: The radiolabeled peptide was then added to 6×10^8 cells/ml stimulated or nonstimulated platelets; endogenous in cells; host or cells: human platelets (thrombin-stimulated), gel-filtered from fresh blood

beta subunit (GPIIIa) = target: T2, beta subunit (GPIIIa) (Homo sapiens, UniProt P05106+P08514); assay: as above; format: binding; conditions: thrombin-stimulated platelets, 20 μM peptide, 45 min at 22° C., BS3 0.2 mM
T2 construct: endogenous in cells; host or cells: human platelets (thrombin-stimulated or nonstimulated), gel-filtered from fresh blood
Method: FIG. 2 illustrates the results of the crosslinking of an RGD peptide to discrete sites in the beta subunit (GPIIIa) of an Integrin adhesion receptor. The ^125 I-labeled RGD peptide, Fn-7 (20 μM), was bound to platelet (6×10^8 /ml) for 45 min at 22° C., and crosslinked with BS^3 (0.2 mM). The fragmentation patterns after proteolysis were analyzed by SDS-PAGE [Laemmli, Nature. 227:680 (1970)] and autoradiography. […] Lanes 2-7, GPIIIa:Fn-7 bands were excised from gels, subjected to proteolysis and then analyzed by SDS-PAGE (15% gels, reducing conditions). For lanes 2-5, GPIIIA:Fn-7 bands were excised and digestions with V-8 protease were performed within the gel slices as described in Cleveland et al., J. Biol. Chem. 252:1102 (1977).
Platelets were isolated from fresh human blood collected into acid/citrate/dextrose by differential centrifugation followed by gel filtration on Sepharose 2B in divalent ion-free Tyrode's buffer, pH 7.3, containing 0.1% bovine serum albumin. See, Marguerie et al., J. Biol. Chem. 225:154-161 (1980). […]
The cell-bound ligand was recovered by centrifugation through 20% sucrose, and the cells were extracted in PBS containing 1% Nonidet P40 and 10 mM N-ethylmaleimide (Sigma). […] The cross-linked samples were analyzed by electrophoresis (SDS-PAGE) on polyacrylamide vertical slab gels in the buffer system of Laemmli, Nature, […] (1970). […]

crosslinking of 125I-Fn-7 to the alpha subunit (GPIIb) (alpha subunit (GPIIb)): more minor crosslinking
crosslinking of 125I-Fn-7 to the beta subunit (GPIIIa) (beta subunit (GPIIIa)): predominance
Sequence: KYGRRGDS [Fn-7, RGD-peptide with a lysine to facilitate crosslinking and a tyrosine for radioiodination]
